Results published in the supplement of paper PMC10567573.

B1: SMAD6 (parent)
chain: SGLVRRLWRSRVVPDREEGGSGGG
B2: ZNF263 (parent)
chain: HLTRHQRTHTGEKPYKCTLCGENF

Variants of: B1
Test: protein stability index of a GFP-peptide fusion (GPS, HEK-293T) (PSI 1-6); higher = more stable
Details: c terminus: a fixed tail appended
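Note: lentivirally expressed fusions sorted by FACS into six bins by GFP to DsRed ratio, PSI derived from sequencing read proportions per bin multiplied by bin number.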

Protein stability index of substitutions, site by site:
L7: Y 3.82; H 3.55; I 4.14; E 3.82; Q 4.4; S 4
W8: Q 5; S 5.1; L 4.22; N 5.26; K 4.64
R11: K 4.15; I 2.63; T 4.68
V4: K 4.45; E 4.63; G 3.41
P14: D 2.83; N 3.77; Y 3.02; L 3.18
R16: W 3.25; M 3.4; N 4.37; Q 3.67
L3: W 4.17; M 4.06; S 4.38; Q 3.88; T 3.54
E18: V 3.85; F 2.68; C 2.94; Y 2.44; A 2.9
G23: M 3.25; V 3.78; P 3.89; F 3.13; S 4.47
V12: D 4.76; C 2.94; F 3.69; P 3.67
D15: T 4.33; K 3.35; N 3.96; P 3.62; E 4.31; H 3.55
G24: F 2.44; Q 3.59; H 2.83; E 4; C 4.91; T 4.01
S1: C 2.09; I 2.92; H 3.81; Q 5.24
G22: A 3.84; C 3.04; E 4.04; I 3.87; R 4.48
G2: N 4.17; L 3.51; F 2.93; V 3.03; D 2.93; M 3.19; E 2.35; H 4.14; K 3.6
R6: A 3.27; H 4; S 3.29
G20: C 3.04; V 2.44; F 2.82; Q 3.96; L 2.74
G19: A 4.28; M 3.35; K 4.06
E17: A 3.47; G 3.86; V 3.71; T 3.31; R 2.93; S 4.07; C 4.26; K 4.14
S21: W 2.9; E 3.53
S10: F 2.4; N 3.89; H 2.24; A 3.76
R5: M 3.3; H 4.21
R9: T 2.82; P 4.85; H 3.69; N 3.96
V13: L 3.99; W 3.37; D 4.88; K 4.13; F 3.32

Variants of: B2
Test: as above
Details: c terminus: a fixed tail appended

Protein stability index, by site and new letter:
K16: N 2.82; C 2.83; V 2.3; D 3.74; I 2.97; P 3.32; G 3.19; E 3.82; M 3.17; H 2.91; Y 2.52; T 2.9; F 2.7; S 3.19; R 2.87; A 3.72; Q 3.17; W 2.78; L 2.33
C20: G 2.92; H 2.66; S 3.23; I 2.57; Y 2.77; N 3.25; F 2.25; A 2.89; E 4.11; M 2.93; K 3.12; V 3.07; W 2.56; T 3.93; R 3.03; L 2.61; P 2.53; Q 3.44; D 3.69
L19: S 3.14; D 3.84; E 3.36; K 3.7; N 3.68; V 2.86; A 3.23; M 2.83; H 2.94; T 3.64; W 2.75; Y 2.39; R 3.03; F 2.62; C 3.88; I 3.15; G 2.56; Q 2.98; P 2.7
N23: V 1.85; T 2.83; I 2.57; S 2.7; K 3.22; D 3.33; C 3.13; M 2.3; Q 2.63; Y 2.53; L 2.34; H 1.98; P 2.54; F 2.33; E 2.75; R 3.08; A 2.68; G 4.03; W 2.57
P14: C 2.52; E 3.21; F 2.78; W 3.26; K 3.31; G 3.58; S 2.79; D 3.65; V 2.77; N 2.92; Y 3.04; T 2.88; H 3.01; L 3.14; Q 3.14; R 2.9; I 2.9; A 2.79; M 2.63
Y15: G 3.29; I 2.85; W 2.46; S 3.48; E 3.69; T 3; V 3.22; D 4.21; L 2.81; C 4.52; N 3.29; A 3.23; P 3.1; Q 3.44; H 3.24; M 3.18; K 3.11; R 2.93; F 3.31
G21: W 2.23; V 2.26; K 3.42; I 2.41; P 2.68; D 3.26; C 2.73; S 2.99; Y 2.97; H 3.46; N 3.02; E 3.58; F 2.43; R 2.46; A 3.27; M 3.06; T 2.7; L 2.58; Q 2.85
K13: H 2.9; L 2.03; P 2.88; Y 2.74; N 3.16; E 3.64; V 2.69; W 2.5; S 3.24; R 2.98; Q 3.6; F 2.65; G 2.92; M 2.56; I 2.13; T 3.54
F24: M 3.58; K 3.12; L 3.44; R 3.13; T 3.85; V 3.47; A 4.22; C 4.06; E 4.08; W 3.08; D 4.62; Y 2.9; Q 2.88; I 3.02; N 3.7; P 3.14; G 3.67; S 4.49; H 3.46
E22: P 2.95; A 2.54; R 2.29; T 2.58; Y 2.39; N 2.69; H 3.43; W 2.13; M 2.31; G 2.31; F 1.95; K 2.36; S 2.9; L 2.08; D 3.33; V 2.17; Q 2.38; C 2.29; I 2.75
T18: S 2.84; Y 3.09; V 2.42; M 2.42; C 2.54; E 3.78; D 2.75; L 2.49; Q 2.68; H 2.65; A 2.94; R 2.68; F 2.56; I 2.36; W 2.54; P 2.4; K 2.98; G 2.45; N 2.81
C17: S 3.4; Y 3.05; G 3.52; Q 3.46; L 2.68; I 2.21; E 3.96; A 3.24; M 2.81; D 3.73; T 3.06; R 2.98; F 2.44; H 2.89; V 3.7; N 3.1; P 3.37; K 3.71
